# B1: p97-ND1L-ΔCys-F360C-A413C (domain or fragment)
# chain: not shown
# modifications: C360 and C413 joined between subunits by bismaleimidoethane (BMOE) in the cross-linked sample
# notes: human p97 (VCP), UniProt P55072, residues 1-480; ΔCys: C69V-C77V-C105A-C174A-C184W-C209V-C415A, plus F360C and A413C; also called cysteine-free p97 variant with F360C and A413C; source: E. coli BL21(DE3), purified (Ni-NTA, TEV cleavage, SEC on Superdex 200; apyrase digestion); reduced with DTT and gel-filtered before cross-linking; not shown: His6, N-terminal, cleaved
# Target: the molecule itself
# Experiment: SEC; apo state; Superdex 200 in crosslinking buffer (20 mM HEPES pH 7.2, 250 mM KCl, 5 mM EDTA), before and after cross-linking
protein,measurement,value
B1,stoichiometry N,6
